Measured values reported in the DeepSol protein solubility set.

Assay: soluble on expression in E. coli; label from the status in PepcDB or PDB records

Sequence	soluble on expression in E. coli
MGSDKIHHHHHHMDLWKLYQPGTPAAIVAWGQLGTAHAKTTYGLLRHSRLFKPVCVVAEHEGKMASDFVKPVRYDVPVVSSVEKAKEMGAEVLIIGVSNPGGYLEEQIATLVKKALSLGMDVISGLHFKISQQTEFLKIAHENGTRIIDIRIPPLELDVLRGGIYRKKIKVVGVFGTDCVVGKRTTAVQLWERALEKGIKAGFLATGQTGILIGADAGYVIDAVPADFVSGVVEKAVLKLEKTGKEIVFVEGQGALRHPAYGQVTLGLLYGSNPDVVFLVHDPSRDHFESFPEIPKKPDFEEERRLIETLSNAKVIGGVSLNGGFETDLPVYDPFNTDDLDEMLERAMVW	soluble
MGSDKIHHHHHHMDNAIVTSPSGSSPAEAQAFLDAHPEIEAFDIVLTDANGVGRGKIVRRHELKSIFEGGRHMPISILGLDITGEDVHETGLIWTTGDGDLRAWPIPGTLVPLYGTNPPRGQVLMAMYHLDGQPMSSDPRLALARQVDILAAKGLYPAGAFELEFFLLANERDADGKVQPARAVLDGRVSGKTEVYSVDHLHGMEPLFSDIYAAAKAQGIPAETVISEYAPGQYELTLNYRKDVMRAADDLVMLKRLVRAQARRHGVTACFMAKPIEKYAGSGMHFHVSLQDKAGRNVFAEAGGESWSLPLLQGLGGLIQTMAESMLVFAPHANSWRRFVSQSYAPVAPTWGVNNRSVALRVPAGDAKNRRIEHRPSGVDANPYLIAATVLAGIVKGLDEGLDPGPETTGNGYEAAVTRTTMPADWRAAIEAAKASSFLKGALGEDLHRTFVAIKQSEYLRVARTVSELDYHLYLHEV	not soluble
MGSDKIHHHHHHMDNLMLNNKIYLEGTCVSNLEFSHEMYGEGFYTFKISVNRLSDVKDILPVTISERLLTEIDIKEGAELIIEGQLRSYNKFIEGSNRLILTVFARDVQPCIEKSKNPNQIFLDGYICKEPIYRTTPFGREIADILLAVNRPYNKSDYIPTISWGRNSRFCKTLNVGDNIRVWGRLQSRKYQKKVGEDEVVTKTAYEVSISKLEYADEIDEEIDKSVENLAE	not soluble
MGSDKIHHHHHHMDNPFARFAGTRTIQANLSLLEENYVPDSFPHRENQINEMVTILSSIMRGSRPSNIIVYGKTGTGKTSTTKYVTKMLVEAASNVSVVYVNCEIYDSPYSILVAIANSAGEEKIPELGWPIDRIYRETVERVEKTGKFFIIILDEMDRLIKKNGGDSLYVLLKLMTDVDSVRVSMIGITNDTTVLENIDARIKSRLNQESIVFPPYNASEIRDIISSRLDKVLGPGVVDDTAINLCAAIGAQEHGDARKAIDLMRIAIEIAIRENRNKITENEIYEARERYEMNVLREAISTLPLHSKIVLLSAVVTQEIEPNSVITGEIYENYRRICDDLGFSPLSPRRISDLLTELADYGLLVMDDRNMGKYGRTRSFSVVHQAETIKKYLLEDENLSMFKSSKMPKQTRFDT	not soluble
MGSDKIHHHHHHMDPRLLPLLSCPRHPTVTLTVEQVERVVNGAIVSGRLRCPVCATTYLIKDGILDMIGQHRPTSAAQVVNEVPVAAWAYERTWRPFALSLLSGEQFPLTRELKLITGLAGAERGGLMVDVGCSNGLYARALEHVRRQRGAGGFVVGIDLSMAMLQEAQRRARHEGLSISFIRASAQAMPFADGTVDALVMGGSLNEIGDIPAALSEWRRLLSPQGRGVMMSLVAASTPIGQGIQQLLASGGLQFPSLAELNHYFTAAGLRLRAQWQYGIVVFSVLQ	not soluble
MGSDKIHHHHHHMDRLQLLEYWLKALYPDQPCTLSPASADASFRRYFRASLPGKTLIVMDAPPQQEDCRPFLHAASIFSRASVHVPAIVAQDLNQGFLLLSDLGTTTYLQALTAAPENANRLYQDAIDALIKIQCASQKNIFPEYDRILLSRELELFPDWYMTRHLHAPPDDDQKNTLKTVFNLILANNLAQPQVFVHRDYHSRNLMVSTPNPGIIDFQDAVLGPITYDLVSLFKDAYIQWEEAQILDWMIRYWEKARHAGLPVATDFSIFYRDFEWMGVQRHLKVLGIFARLCYRDNKPTYLQDMPAIMQYLRQTCERYSELHPLSRLLDRLEDRQAETGYTF	not soluble
MGSDKIHHHHHHMDSYFLGVSLESLKSLPRQTNHLRLGLAMWSHYHWQDSVYGSTTKQAERLARYATIFNTVEGNTSFYATPNAQTMMNWLRATPDDFRFTFKLPQTITHQKQLQHCQQELLQFFQVMSPLAEKTGLWKIQLPAHFGPENLPALAQFLNQVPQGLTYGVEVRHAAFFAKGEAERALNRLLMDKQVNRIIMDSRPLFALPPANEAIIDTHKKKPRVPVHAIATANTPVVRFIGQPDDACSCTTRAARR	not soluble
MGSDKIHHHHHHMDTDLLKTFLEVSRTRHFGKAAENLYLTRSAVSFRIKQLENILGLELFERLRNNIQPTPAGERMLGHAEAVLNAWERAKQDIILNQQHSAQLALSAGDNIWDAFLQGFLQPLHLGLEGVALRTDVLPATVMTRQLIERTLDIAITFDPPKLDGVILVKLAEVKLYLVSKQAGVKLTQTPTLPYIKVDWGTAFNITHAQDFTMLPLPVLHTSSARMALDFILNNGGCAFLPEALIKPYLDNGSLYVVDDAKCIHRHVYAAYWAENERLAYIEQAISILTTDKRTE	not soluble
MGSDKIHHHHHHMDTKQTFLEDLKSRDNIKLSLMVMKIIFRETDKLICILADRTGEIKASVPLKDGDIKQGMVIQINGSKNVNLEVKSYKIIRDYNISDYLPTVKRPIEDIMNEIELYTNKYVLSKEGRALNDYFFKDEEFLEKFKKGIGGVSMHHNYIGGLAEHTLNVMKITAKLSEKYKCRRMEVAVLAAKLHDIGKVYEYDCNGPFKYTMRGQMEGHIVIGVELVDRAVRENLNLYPEDFVNRIKGCIVQHHGKLEFGSPREMNMEESFIINYADSIDATMNKISQLKEKTEPDTWSEFDRRIERKLYL	not soluble
MGSDKIHHHHHHMEAIQVASVKDNFVKTLEKIRKKHGVDIIALFAIRQSLAIHVINSADNPVSFSAGTIFNLTLTPLVEEFLFNVKTFENHPQKTRFALVENVQWELYIPVVFKEFPTGFVYVASKKKRDAEKTEGIIRDLQDFLKAHGLEYYFLEYSVVLDQLLTTVAILIDRLFSRVSRYTLNHIYNVAFWAEEIGKIVGLDEKRLAKLYLAGLLHDIGKVYIDERILNKEGRLTLQEYQEMKKHVDYSYNMVKDLMIWDIEDDVALWVVQHHEKFDGSGYPFGLKEEEITPEGRILKIADTLDAMLSPRSYRNPFPLDDVIKEIERLRGKDFDPLLADLTVDLLREKKESLGLFEGRILPATLIAGEGIHEGILRKNDGYHVFISDYV	not soluble
MGSDKIHHHHHHMECTSYLVDTFDQLPPINEESLADIDNDLFSGLYYGGVDTPTTRQLSQRVADLEKGKFAVLTPSGQSAFNLLLTTFVKPGDHVLAGDTIVYSTRWLLNHFENIGVKIEYFTPSEAATLKNKLTLKTKLIIFENPGAFTYEVMDISAIVESRHDHPALIVADNTWAASLFHHPLSLGADISLISMSKYHGAVEGISLGALITKRKDLYVNLKTTSALTGNHVSSHACSAAIRSISTLGARLSFQMSTTRKVLRSLKPLPLLKQAIHPILQNTELHLQNSMIYGFNSLFTAEFSCSRNELISRLNRLNLIKIGYGWGGTTSLVNLIDTHDMPSAKRLGINSECARIYLGLEDPDELTRDLTNAFTQ	not soluble
MGSDKIHHHHHHMECVFGIDVSKENANVAVLVDNVVIKQFKIGLDRLGFSLLSDELNSFNAPLIIYEATAMYSRRLRAFLQRDGWKYTELNPLAAKKVMEEFRHTKTDALDAVGLARAMIKNHFRPTYQESPVYTELHDLERTYQQFNKDIVTNKNRLHRALQLTFPEIEHFMSSTDGVLYWHIVQRFPHPAIVLSHEENELTEIILTETSKKIGLKRAMKLANRLLALAQNSAPAKEPQSHAVRAVIALAKEVERINQLKAQIIVEMTTLGENLSEVPLLVSIPGIGIKTALCLIAELGDVRRFHSANAINAYIGIDLIRYESGQYEAKMHIRKRGNPYVRKILYRAILNIISVSQYQPTLISANYKRKKQSAQSHGTKKIAIAAMSQFNRLMHHLILNNELYDSTTFMPE	not soluble
MGSDKIHHHHHHMEDNDWKLLKIIEISMKNHEWVPIQDLRRKTGFHEKEIVFRLGRLNKFKFTNKSNYGYRLSHWGYDALAMNAFIKKELIAGIGGKVGVGKEGDVYHVLLTNHREAVLKFHQLGRTCFSMGKRYREYLANKRHISWLYASRLTAAREFEVLNMLFPVVKVPEPIEQNRHAIIMGKLHGEELKRVNLLEINVDPEEFFWKLMVEVKKTYKLGIIHGDLSEFNILIDSEGDFVIIDWPQAIEVGKKGKLDKLPFEEVEYDEEFYLKRDIENVVRYFKKYGIDKDIDKLYNYVIGDITSENI	not soluble
